Results on 5 molecules are retold here after patent US12365732.

Experiment [1] concerns the target human CD96 on primary human immune cells (PBMCs, NK cells, CD4+ T cells) (human) (UniProt P40200). Briefly: FACS, Ab 16 nM.
For experiment [2] the target is unchanged. Nature of the experiment: FACS, Ab 80 nM.
The target is the same in experiment [3]. Briefly: FACS, Ab 3.2 nM.
For experiment [4] the target is unchanged. Nature of the experiment: FACS, Ab 0.64 nM.
Experiment [5] has the same target. Briefly: FACS, Ab 0.128 nM.
The target is the same in experiment [6]. Briefly: FACS, Ab 0.0256 nM.
Experiment [7] has the same target. Nature of the experiment: FACS, Ab 0.00512 nM.
Experiment [8] shares this target. Briefly: FACS, % positive curve.
Experiment [9] has the same target. Briefly: cell-based or functional assay.

Residue numbers refer to the chain shown, from its start.

B1: h10G1 IgG (humanized 10G1) (antibody, V domains shown)
VH: EIQLVQSGSELKKPGASVKVSCKASGYPFTTYGMSWVRQAPGQGLEWMGWINTDSGVPTYADDFKGRFVFSLDTSVSTAYLQISSLKAEDTAVYFCARNIYYGWGNFDYWGQGTLVTVSS
VL: EIVMTQSPDFQSVTPKEKVTITCRASQDIYRNLHWYQQKPDQTPKLLIKHASDSISGIPSRFSGSGSGTDFTLTINSLEAEDAAAYYCLQGYSMPYTFGGGTKVEIKG
For the molecule B1, the % positive in experiment [1] worked out at 81.4%. This molecule also gave a % positive in experiment [2] of 88.7%. The % positive in [3] was found to be 64.4%. The % positive in experiment [4] was 53.5%. Besides, in [5], the % positive was found to be 39.1%. Moreover, the % positive in [6] is 14.6%. In addition, the % positive in [7] came to 5.4%. Moreover, the EC50 in [8] is 0.28 nM. In [9], this molecule displayed a Human NK cell IFNγ secretion (fold over background), Ab 0.0032 nM of 1 fold; a Human NK cell IFNγ secretion (fold over background), Ab 0.016 nM of 1.13 fold; a Human NK cell IFNγ secretion (fold over background), Ab 0.08 nM of 1.38 fold; a Human NK cell IFNγ secretion (fold over background), Ab 0.4 nM of 1.96 fold. In [9], this molecule displayed a Human NK cell IFNγ secretion (fold over background), Ab 2 nM of 2.08 fold; a Human NK cell IFNγ secretion (fold over background), Ab 10 nM of 2.19 fold; a Human NK cell IFNγ secretion (fold over background), Ab 50 nM of 2.21 fold; a Human NK cell IFNγ secretion (fold over background), Ab 250 nM of 1.87 fold. Also, in experiment [9], the Human NK cell IFNγ secretion, EC50 came out at 0.112 nM.

B2: mAb1.v7.NGS10 IgG (antibody, V domains shown)
VH: EVQLVQSGAEVKKPGASVKVSCKASGFTFTNNFMHWVRQAPGQGLEWIGFIHANSGITNINEKFKNRVTMTTDTSTSTAYMELRSLRSEDTAVYYCRSDGIYEGYFDYWGQGTLVTVSS
VL: DIQLTQSPSSLSASVGDRVTITCKASQNVGTAIVWYQQKPGKAPKVLIYSASTRYTGVPSRFSGSGSGTDFTLTISSLQPEDFATYYCQQYSSSPLTFGQGTKVEIKG
In turn, B2 yielded a % positive in [1] of 97.1%. For the same molecule, the % positive in experiment [2] came out at 97.7%. In addition, the % positive in experiment [3] amounted to 93.8%. In [4], this molecule had a % positive of 88.8%. The molecule further displayed a % positive in [5] of 66.7%. In experiment [6], this molecule yielded a % positive of 16.9%. In experiment [7], this molecule came in with a % positive of 6.1%. The molecule also displayed an EC50 in [8] of 0.069 nM. In experiment [9], this molecule showed a Human NK cell IFNγ secretion (fold over background), Ab 0.0032 nM of 1 fold; a Human NK cell IFNγ secretion (fold over background), Ab 0.016 nM of 1.24 fold; a Human NK cell IFNγ secretion (fold over background), Ab 0.08 nM of 1.36 fold; a Human NK cell IFNγ secretion (fold over background), Ab 0.4 nM of 1.81 fold. In experiment [9], this molecule registered a Human NK cell IFNγ secretion (fold over background), Ab 2 nM of 2.12 fold; a Human NK cell IFNγ secretion (fold over background), Ab 10 nM of 1.94 fold; a Human NK cell IFNγ secretion (fold over background), Ab 50 nM of 2.05 fold; a Human NK cell IFNγ secretion (fold over background), Ab 250 nM of 1.87 fold. Moreover, in experiment [9], the Human NK cell IFNγ secretion, EC50 came out at 0.084 nM.

B3: mAb1.v7.NGS11 IgG (antibody, V domains shown)
VH: B2 VH with I101V
VL: B2 VL
On to B3, for which the % positive was 96.7% in [1]; 97.2% in experiment [2]; 94.2% in experiment [3]; 89.7% in [4]; 61.1% in experiment [5]; 11.6% in experiment [6]. Moreover, the % positive in experiment [7] was found to be 5.4%. In addition, the EC50 in experiment [8] was 0.083 nM.

B4: mAb1.v7.NGS8 IgG (antibody, V domains shown)
VH: B2 VH with F50M
VL: B2 VL
As to B4, the % positive amounted to 96.2% in [1]; 97.8% in [2]; 92.3% in experiment [3]; 89.3% in experiment [4]; 64.2% in experiment [5]; 22% in experiment [6]. For the same molecule, the % positive in experiment [7] amounted to 8.6%. The molecule also had an EC50 in experiment [8] of 0.072 nM.

B5: mAb1.v7.NGS9 IgG (antibody, V domains shown)
VH: B2 VH with F50M, I101V
VL: B2 VL
Take B5: the % positive was 97.1% in experiment [1]; 97.8% in experiment [2]; 95.1% in [3]; 90.8% in experiment [4]; 64.7% in [5]; 22.5% in experiment [6]. For the same molecule, the % positive in experiment [7] was 8.2%. This molecule gave an EC50 in [8] of 0.071 nM.
